Test results published in publication PMC7154664 (Angewandte Chemie (International Ed. in English), 2020).

B1: OXCMe (Methylorubrum extorquens AM1) (protein)
chain: MTVQAQNIDAITAGAMPHEEPELTDGFHLVIDALKLNGIETIYNVPGIPITDLGRLAQAEGLRVISFRHEQNAGNAAAIAGFLTKKPGICLTVSAPGFLNGLTALANATTNCFPMILISGSSEREIVDLQQGDYEEMDQLAIAKPLCKAAFRVLHAADIGIGVARAIRAAVSGRPGGVYLDLPAKLFSQVIDADLGARSLVKVIDAAPAQLPAPAAIARALDVLKSAERPLIILGKGAAYAQADEAVRALVEESGIPYVPMSMAKGLLPDTHPLSAGAARSTALKDSDVVLLVGARLNWLLSHGKGKTWGEPGSKRFIQIDIEPREMDSNVEIVAPVVGDIGSCVEALLDGIRKDWKGAPSNWLETLRGKREANIAKMAPKLMKNSSPMCFHSALGALRTVIKERPDAILVNEGANTLDLARGIIDMYQPRKRLDVGTWGVMGIGMGFAVAAAVETGKPVLAVEGDSAFGFSGMEVETICRYELPVCIVIFNNNGIYRGTDTDPTGRDPGTTVFVKNSRYDKMMEAFGGVGVNVTTPDELKRAVDEAMNSGKPTLINAEIDPAAGSESGNIGSLNPQSTLKKK
B2: OXCMe (Methylorubrum extorquens AM1; Y497A) (protein)
chain: MTVQAQNIDAITAGAMPHEEPELTDGFHLVIDALKLNGIETIYNVPGIPITDLGRLAQAEGLRVISFRHEQNAGNAAAIAGFLTKKPGICLTVSAPGFLNGLTALANATTNCFPMILISGSSEREIVDLQQGDYEEMDQLAIAKPLCKAAFRVLHAADIGIGVARAIRAAVSGRPGGVYLDLPAKLFSQVIDADLGARSLVKVIDAAPAQLPAPAAIARALDVLKSAERPLIILGKGAAYAQADEAVRALVEESGIPYVPMSMAKGLLPDTHPLSAGAARSTALKDSDVVLLVGARLNWLLSHGKGKTWGEPGSKRFIQIDIEPREMDSNVEIVAPVVGDIGSCVEALLDGIRKDWKGAPSNWLETLRGKREANIAKMAPKLMKNSSPMCFHSALGALRTVIKERPDAILVNEGANTLDLARGIIDMYQPRKRLDVGTWGVMGIGMGFAVAAAVETGKPVLAVEGDSAFGFSGMEVETICRYELPVCIVIFNNNGIARGTDTDPTGRDPGTTVFVKNSRYDKMMEAFGGVGVNVTTPDELKRAVDEAMNSGKPTLINAEIDPAAGSESGNIGSLNPQSTLKKK
B3: OXCMe (Methylorubrum extorquens AM1; S568A) (protein)
chain: MTVQAQNIDAITAGAMPHEEPELTDGFHLVIDALKLNGIETIYNVPGIPITDLGRLAQAEGLRVISFRHEQNAGNAAAIAGFLTKKPGICLTVSAPGFLNGLTALANATTNCFPMILISGSSEREIVDLQQGDYEEMDQLAIAKPLCKAAFRVLHAADIGIGVARAIRAAVSGRPGGVYLDLPAKLFSQVIDADLGARSLVKVIDAAPAQLPAPAAIARALDVLKSAERPLIILGKGAAYAQADEAVRALVEESGIPYVPMSMAKGLLPDTHPLSAGAARSTALKDSDVVLLVGARLNWLLSHGKGKTWGEPGSKRFIQIDIEPREMDSNVEIVAPVVGDIGSCVEALLDGIRKDWKGAPSNWLETLRGKREANIAKMAPKLMKNSSPMCFHSALGALRTVIKERPDAILVNEGANTLDLARGIIDMYQPRKRLDVGTWGVMGIGMGFAVAAAVETGKPVLAVEGDSAFGFSGMEVETICRYELPVCIVIFNNNGIYRGTDTDPTGRDPGTTVFVKNSRYDKMMEAFGGVGVNVTTPDELKRAVDEAMNSGKPTLINAEIDPAAGSEAGNIGSLNPQSTLKKK
B4: OXCMe (Methylorubrum extorquens AM1; S568A/Y497A) (protein)
chain: MTVQAQNIDAITAGAMPHEEPELTDGFHLVIDALKLNGIETIYNVPGIPITDLGRLAQAEGLRVISFRHEQNAGNAAAIAGFLTKKPGICLTVSAPGFLNGLTALANATTNCFPMILISGSSEREIVDLQQGDYEEMDQLAIAKPLCKAAFRVLHAADIGIGVARAIRAAVSGRPGGVYLDLPAKLFSQVIDADLGARSLVKVIDAAPAQLPAPAAIARALDVLKSAERPLIILGKGAAYAQADEAVRALVEESGIPYVPMSMAKGLLPDTHPLSAGAARSTALKDSDVVLLVGARLNWLLSHGKGKTWGEPGSKRFIQIDIEPREMDSNVEIVAPVVGDIGSCVEALLDGIRKDWKGAPSNWLETLRGKREANIAKMAPKLMKNSSPMCFHSALGALRTVIKERPDAILVNEGANTLDLARGIIDMYQPRKRLDVGTWGVMGIGMGFAVAAAVETGKPVLAVEGDSAFGFSGMEVETICRYELPVCIVIFNNNGIARGTDTDPTGRDPGTTVFVKNSRYDKMMEAFGGVGVNVTTPDELKRAVDEAMNSGKPTLINAEIDPAAGSEAGNIGSLNPQSTLKKK

Assays:
[1] = biological target: T1, YciA (Escherichia coli, UniProt P0A8Z0); experiment: thioesterase activity assay; assay type: biochemical; conditions: racemic mandelyl-CoA 0.5 mM, YciA 2 μM
T1 sequence (P0A8Z0 1-132): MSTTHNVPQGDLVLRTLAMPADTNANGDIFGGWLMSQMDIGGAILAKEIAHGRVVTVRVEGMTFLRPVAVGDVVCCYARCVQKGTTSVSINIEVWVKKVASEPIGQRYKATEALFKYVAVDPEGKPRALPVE

[2] = biological target: HACLHs (Homo sapiens, UniProt Q9UJ83); experiment: carboligation, LC-MS product analysis after […] h; assay type: biochemical; conditions: formyl-CoA 1 mM as C1 donor, aldehyde 10 mM, enzyme 5 μM
HACLHs, sequence (Q9UJ83 whole entry): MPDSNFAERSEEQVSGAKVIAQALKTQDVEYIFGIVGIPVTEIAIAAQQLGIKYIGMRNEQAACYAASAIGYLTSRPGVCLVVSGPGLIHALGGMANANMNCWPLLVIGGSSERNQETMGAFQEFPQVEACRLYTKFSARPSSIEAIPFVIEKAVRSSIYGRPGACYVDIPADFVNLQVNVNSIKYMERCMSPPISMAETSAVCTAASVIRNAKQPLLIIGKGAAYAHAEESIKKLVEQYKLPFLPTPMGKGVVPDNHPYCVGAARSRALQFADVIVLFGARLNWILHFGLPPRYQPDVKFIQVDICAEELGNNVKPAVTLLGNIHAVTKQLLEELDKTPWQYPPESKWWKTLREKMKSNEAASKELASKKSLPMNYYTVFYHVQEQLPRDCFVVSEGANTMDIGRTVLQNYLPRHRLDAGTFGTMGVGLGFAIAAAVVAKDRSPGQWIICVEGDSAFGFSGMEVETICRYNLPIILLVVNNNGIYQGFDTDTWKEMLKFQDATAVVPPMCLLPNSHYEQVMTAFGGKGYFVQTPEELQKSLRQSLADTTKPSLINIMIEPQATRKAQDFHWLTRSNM

[3] = substrate: CC(C)(COP(=O)(O)OP(=O)(O)OC[C@H]1O[C@@H](n2cnc3c(N)ncnc32)[C@H](O)[C@@H]1OP(=O)(O)O)[C@@H](O)C(=O)NCCC(=O)NCCSC(=O)C(=O)O; experiment: purified protein; conditions: decarboxylation to formyl-CoA; ThDP-dependent

Row | Molecule | thioesterase activity assay [1] | carboligation, LC-MS product analysis after 1 h [2] | Km [3] [µM] | kcat [3] [s⁻¹] | kcat/Km [3] [M⁻¹ s⁻¹]
1 | CC(C)(COP(=O)(O)OP(=O)(O)OC[C@H]1O[C@@H](n2cnc3c(N)ncnc32)[C@H](O)[C@@H]1OP(=O)(O)O)[C@@H](O)C(=O)NCCC(=O)NCCSC(=O)C(O)c1ccccc1 (stereo partly drawn) [mandelyl‐CoA] | YciA showed relatively high mandelyl‐CoA thioesterase activity |  |  |  | 
2 | CC(C)(COP(=O)(O)OP(=O)(O)OC[C@H]1O[C@@H](n2cnc3c(N)ncnc32)[C@H](O)[C@@H]1OP(=O)(O)O)[C@@H](O)C(=O)NCCC(=O)NCCSC=O [formyl‐CoA] |  | HACLHs and OXCMe are able to perform nucleophilic C1‐extension reactions of different aldehydes with formyl‐CoA |  |  | 
3 | B1 |  |  | 105 ± 11 | 98 ± 3 | 930000
4 | B2 |  |  | 180 ± 17 | 1.32 ± 0.04 | 7300
5 | B3 |  |  | 23 ± 2 |  | 
6 | B4 |  |  | 103 ± 15 | 0.32 ± 0.01 | 3100
